Assay results published in patent US12214014B2, “Methods for scar reduction by converting scar fibroblasts into adipocytes with hair follicle-derived signals” (The Trustees of the University of Pennsylvania, priority 2017, dated 2025).
Entries after “also recorded” stand apart in the source; their conditions may differ.

Assays:
[1] = test system: regenerated adipocytes in wounds; assay: Adipocyte regeneration in large excisional skin wounds (adipocyte/hair follicle index, Oil Red O); type: in vivo, mouse; details: for Adipocyte/hair index (new adipocyte/follicle ratio): WT mice treated during wound healing, post-wounding Day 28; for regeneration of new adipocytes in hair-bearing wounds: treatment during wound healing (2 mg/kg), hair follicles regenerate normally
Method: (§1) All animal experiments were carried out in accordance to with the guidelines of the IACUC of the University of Pennsylvania and the University of California, Irvine. Full thickness 1.5×1.5 cm (2.25 cm^2) excisional wounds were inflicted on the backs of three to eight week-old mice as described in M. Ito et al., Nature 447:316 (2007).
Whole mount wounds were stained for Oil Red O and the number of regenerated hair follicles was counted from the skin surface, where each new hair is clearly visible. The number of new adipocytes was counted from the underside, where each adipocyte is clearly visible due to their very large size and prominent marking by Oil Red O dye. For each experiment, adipose tissue regeneration was quantified as the ratio of all new adipocytes/all new hair follicles (aka adipocyte/hair follicle index). Some wound samples (FIG. 2B) were stained for lacZ and photographed, then additionally stained for Oil Red O and photographed again. Adipocytes were then micro-dissected and photographed under stereomicroscope.

Zfp423 = Zfp423 reporter (lacZ) activity in wounds of Zfp423-lacZ mice; type: in vivo, mouse; details: 2 mg/kg during wound healing, day 21
Method: FIG. 25: BMP signaling is necessary for Zfp423 reporter activation in wounds. […] Asterisk marks lacZ-positive dermal papillae of new hair follicles. Size bars: 100 μm.
as §1

[2] = test system: mouse dermal cells isolated from day 15 wounds; assay: Primary mouse adipogenic cell culture; type: cell-based; details: 6 ng/ml hBMP4 or 25 ng/ml hBMP2 with differentiation media
Method: Primary scar cells were isolated from day 15 wounds as described in D. Gay et al., Nature medicine 19:916 (2013) with minor modifications. Single cell fractions were created and cultured to confluence in high-glucose to DMEM (Gibco) supplemented with 10% FBS (Atlanta Biologicals) and […] Pen/Strep cocktail (Gibco). […] After three days, cells differentiation media was switched to adipocyte maintenance media (Cell Solutions). Cells were cultured in a water-jacketed incubator at 37° C. with 5% CO2 output
(§2) Total RNA was isolated using Trizol reagent (Thermo) or RNEasy Micro-Kit (Qiagen) as per manufacturer's protocol with minor modifications. Total RNA was reverse-transcribed and cDNA was amplified using PCR primers described in J. Ishibashi et al., Mol Cell Biol 32:2289 (2012). See Tables 3 and 4 for the sequences of primers used.

human keloid scar cells = assay: Primary human adipogenic cell culture, keloid scar cells; type: cell-based; details: 20 ng/ml hBMP4 for 48 hours, then adipogenic cocktail; for adipogenic conversion of keloid scar cells (Oil Red O positive adipocytes): n=3
Method: (§3) All human experiments were carried out in accordance with the guidelines of the IRB of the University of California, Irvine, Children's Hospital Los Angeles and Kyungpook National University. Keloid fibroblasts were isolated as described in Y. S. Lee et al., Wound repair and regeneration: official publication of the Wound Healing Society [and] the European Tissue Repair Society 24:302 (2016). Human hypertrophic scar myofibroblasts were derived from clinical specimen biopsies and expanded in vitro as described in M. Vangipuram et al., Journal of visualized experiments: JoVE, e3779 (2013).
Primary human scar cells were cultured in DMEM/F12 media (Gibco) supplemented with 10% FBS (Fisher Scientific). Upon confluency, cells were switched to serum free DMEM/F12 media and treated with 20 ng/ml recombinant hBMP4 protein (R&D Systems) for 48 hours before differentiation. For the hair follicle co-culture, cells were grown in 12-well trans-well plates. Once near confluency, medium was changed to William's E hair follicle organ culture medium, and 40 microdissected human scalp anagen hair follicles were co-cultured on top of the membrane insert in each well for 5 days. Control cells were cultured in William's E medium without hair follicles. In all cases, adipogenic differentiation was induced by adding adipogenic cocktail: DMEM/F12 media supplemented with 1% ITS premix (insulin-transferrin-selenium; BD Biosciences), 0.5 mM isobutylmethylxanthine (Sigma), 0.1 μM cortisol (Sigma), 1 μM dexamethasome (Sigma), 0.2 nM triiodothyronine (Sigma), and 1 μM rosiglitazone (Cayman Chemical). After 4 days of induction, cells were changed to maintenance media: DMEM/F12 media supplemented with 1% ITS premix (BD Biosciences), 0.1 μM cortisol (Sigma), and 0.2 nM triiodothyronine (Sigma). For the hair follicle co-culture, cells were maintained in the induction media for 7 days. Lipid droplets were visualized after 7 days and cells were harvested for RNA isolation on day 10.
as §2

[3] = test system: human hypertrophic scar fibroblasts; assay: Primary human adipogenic cell culture, hypertrophic scar fibroblasts; type: cell-based; details: n=3
Method: as §3
Primary human scar cells were cultured in DMEM/F12 media (Gibco) supplemented with 10% FBS (Fisher Scientific). Upon confluency, cells were switched to serum free DMEM/F12 media and treated with 20 ng/ml recombinant hBMP4 protein (R&D Systems) for 48 hours before differentiation. For the hair follicle co-culture, cells were grown in 12-well trans-well plates. Once near confluency, medium was changed to William's E hair follicle organ culture medium, and 40 microdissected human scalp anagen hair follicles were co-cultured on top of the membrane insert in each well for 5 days. Control cells were cultured in William's E medium without hair follicles. […]

[4] = listed as small-molecule inhibitor of SMAD1/5/8 phosphorylation

Question: For `c1ccc2c(-c3cnn4cc(-c5ccc(N6CCNCC6)cc5)cnc34)ccnc2c1` [LDN-193189], which “Adipocyte/hair index (new adipocyte/follicle ratio)” value [1] is on record?
Answer: 0.58 ± 0.35

Question: And the “Adipocyte/hair index (new adipocyte/follicle ratio)” value [1, 4]?
Answer: 0.58+/−0.35

Question: What about the “regeneration of new adipocytes in hair-bearing wounds” value [1] of the same molecule?
Answer: near complete loss of regenerated adipocytes

Question: What about the “regeneration of new adipocytes in hair-bearing wounds” value [1, 4] of the same molecule?
Answer: largely prevented new adipocyte regeneration

Question: And the “Zfp423 activity (reporter) in dermal cells surrounding new hair follicles and in blood vessels” value (Zfp423)?
Answer: significantly downregulated

Question: What about the “Zfp423 activity (reporter) in dermal cells surrounding new hair follicles and in blood vessels” value (Zfp423; [4]) of the same molecule?
Answer: downregulated

B1: BMP4: human recombinant bone morphogenetic protein 4 (R&D Systems) (protein, UniProt P12644 293-408, looked up)
Bone morphogenetic protein 4: SPKHHSQRARKKNKNCRRHSLYVDFSDVGWNDWIVAPPGYQAFYCHGDCPFPLADHLNSTNHAIVQTLVNSVNSSIPKACCVPTELSAISMLYLDEYDKVVLKNYQEMVVEGCGCR
Question: Which results are given for B1?
Answer: activation of adipocyte-specific genes (qRT-PCR) [2]: activation of adipocyte-specific genes; reprogramming of cultured mouse dermal cells into adipocytes ([2]; without BMP non-adipogenic): induced their reprogramming into adipocytes; expression of adipogenic genes ZNF423, ADIPOQ, ADIPOSIN, PPARG2, FABP4 (qRT-PCR) (human keloid scar cells): expression of adipocyte markers; also recorded: activation of adipocyte-specific genes; expression of adipogenic genes ZNF423, ADIPOQ, ADIPOSIN, PPARG2, FABP4 (qRT-PCR) (human keloid scar cells; listed as hBMP4): upregulation of adipogenic genes; adipogenic conversion of keloid scar cells (Oil Red O positive adipocytes) (human keloid scar cells): induced their conversion to lipid-laden adipocytes; also recorded: induced their reprogramming into adipocytes; adipogenic conversion of keloid scar cells (Oil Red O positive adipocytes) (human keloid scar cells; listed as hBMP4): consistently induced adipogenic conversion; qRT-PCR against select adipogenic genes ([3]; following hBMP4 treatment): only ADIPISIN becomes significantly upregulated; adipogenic potential of hypertrophic scar fibroblasts (Oil Red O) ([3]; hBMP4 for 48 hours prior to differentiation, vs non-hBMP4 control): does not induce an increase in adipogenic potential
